Source: patent US20240317816A1, “PEPTIDES FOR IMMUNOTHERAPY” (Genevive, Inc., priority 2021, published 2024)

Experiments:
Format in all cases: cell-based
[1] = biological target: T1, CXCR3 (Homo sapiens, UniProt P49682); experiment: SelectScreen agonist/antagonist assay, CXCR3-bla U2OS cells; parameters: TEV protease site; Gal4-VP16 transcription factor ('Ga14-VP16' [sic]); Tango cell line; host or cells: Tango GPCR-bla U2OS; conditions: for SelectScreen Antagonist Mode: control agonist I-TAC at EC80
T1 sequence (P49682 1-368): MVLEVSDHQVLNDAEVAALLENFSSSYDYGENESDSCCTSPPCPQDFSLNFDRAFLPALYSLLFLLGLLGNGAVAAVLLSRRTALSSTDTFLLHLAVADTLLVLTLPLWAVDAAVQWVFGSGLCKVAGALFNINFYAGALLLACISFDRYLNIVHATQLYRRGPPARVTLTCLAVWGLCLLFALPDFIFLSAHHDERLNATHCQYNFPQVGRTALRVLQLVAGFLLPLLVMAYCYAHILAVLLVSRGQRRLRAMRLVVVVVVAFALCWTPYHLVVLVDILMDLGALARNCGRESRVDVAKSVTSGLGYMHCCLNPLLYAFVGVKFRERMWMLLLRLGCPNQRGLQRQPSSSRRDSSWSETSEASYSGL
Protocol: (§1) In agonist assays, chemokine receptor expressing U2OS cells are thawed and resuspended in Assay Media (DMEM, 1% dialyzed FBS, 25 mM HEPES pH 7.3, 0.1 mM NEAA, 100 U/mL/100 μg/mL Pen/Strep) to a concentration of 312,500 cells/mL. 4 μL of a 10× serial dilution of I-TAC (control agonist starting concentration, 500 nM) or compounds are added to appropriate wells of a 384-well TC-Treated assay plate. 32 μL of cell suspension (10,000 cells) is added to each well. 4 μL of Assay Media is added to all wells to bring the final assay volume to 40 μL. The plate is incubated for 16-24 hours at 37° C./5% CO2 in a humidified incubator. 8 μL of 1 μM Substrate+Solution D Loading Solution is added to each well and the plate is incubated for 2 hours at room temperature. The plate is read on a fluorescence plate reader.
(§2) In antagonist assays, CXCR3-bla U2OS cells were thawed and prepared as described above for the Agonist assay. 4 μL of 10× compounds or assay media was added to appropriate wells of a TC-Treated assay plate. 32 μL of cell suspension was added to the wells and pre-incubated at 37° C./5% CO2 in a humidified incubator with compounds and control antagonist titration for 30 minutes. 4 μL of 10× control agonist I-TAC at the pre-determined EC80 concentration is added to wells containing the control antagonist or compounds. The plate is incubated for 16-24 hours at 37° C./5% CO2 in a humidified incubator. 8 μL of 1 μM Substrate+Solution D Loading Solution is added to each well and the plate is incubated for 2 hours at room temperature. The plate is read on a fluorescence plate reader.
Tango™ CXCR3-bla U2OS cells contain the human chemokine (C-X-C motif) receptor 3 linked to a TEV protease site and a Ga14-VP16 transcription factor stably integrated into the Tango™ GPCR-bla U2OS cell line. This parental cell line stably expresses a beta-arrestin/TEV protease fusion protein and the beta-lactamase reporter gene under the control of a UAS response element. The Tango™ CXCR3-bla U2OS cells have been functionally validated for a response to I-TAC (CXCL11).

[2] = biological target: T2, CXCR4 (Homo sapiens, UniProt P61073); experiment: gpcrMAX PathHunter β-Arrestin Assay
T2 construct: host or cells: U2OS
Excerpt: (§3) The PathHunter® β-Arrestin Assay monitored activation of a panel of 168 G-protein coupled receptors (GPCRs) with […] activation of the GPCR in agonist and antagonist mode.
(§4) where the test sample is the peptide, the vehicle control is DMSO (0% activity), and the control ligand is control compound (100% activity).
(§5) Peptides SG-3-00802 and SG-3-05021 were identified as an agonist, an antagonist, a PAM (Positive Allosteric Modulator), or an inverse-agonist. Agonist, antagonist, PAM, and inverse-agonist were identified according to the guidelines in Table 8. The basal activity/noise is a % activity of −20% to 20% for both agonist and antagonist modes. A PAM (Positive Allosteric Modulator) binds to a receptor, at a different site than the agonist, to change the receptor's response to the agonist. An inverse-Agonist is a binding partner with agonistic shutting down of basal activity in the cell. An antagonist antagonizes the activity of a particular binding partner.

[3] = biological target: T3, CCR7 (Homo sapiens, UniProt P32248); experiment: gpcrMAX PathHunter β-Arrestin Assay
T3 construct: expressed in transfected cells
T3 sequence (P32248 25-378): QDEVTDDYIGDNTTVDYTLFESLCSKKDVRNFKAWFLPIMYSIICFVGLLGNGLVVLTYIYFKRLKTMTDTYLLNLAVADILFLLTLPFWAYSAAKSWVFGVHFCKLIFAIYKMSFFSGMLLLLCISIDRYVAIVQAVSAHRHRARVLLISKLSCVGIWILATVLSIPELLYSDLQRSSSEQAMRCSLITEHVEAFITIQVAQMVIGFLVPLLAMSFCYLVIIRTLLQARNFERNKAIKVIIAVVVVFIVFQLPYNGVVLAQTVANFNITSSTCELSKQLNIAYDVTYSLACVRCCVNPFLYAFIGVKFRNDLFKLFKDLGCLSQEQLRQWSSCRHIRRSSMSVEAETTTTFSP
Excerpt: as §3, §4, §5

[4] = biological target: T1, CXCR3; experiment: gpcrMAX PathHunter β-Arrestin Assay
Excerpt: as §3, §4, §5

[5] = biological target: T3, CCR7; experiment: SelectScreen agonist/antagonist assay, chemokine receptor expressing U2OS cells
Protocol: as §1
as §2, with “The plate is incubated for 16-24 hours at 37° C./5% CO2 in a humidified incubator. 8 μL of 1 μM Substrate+Solution D Loading Solution is added to each well and the plate is incubated for 2 hours at room temperature.” left out

T2 sequence (P61073 whole entry): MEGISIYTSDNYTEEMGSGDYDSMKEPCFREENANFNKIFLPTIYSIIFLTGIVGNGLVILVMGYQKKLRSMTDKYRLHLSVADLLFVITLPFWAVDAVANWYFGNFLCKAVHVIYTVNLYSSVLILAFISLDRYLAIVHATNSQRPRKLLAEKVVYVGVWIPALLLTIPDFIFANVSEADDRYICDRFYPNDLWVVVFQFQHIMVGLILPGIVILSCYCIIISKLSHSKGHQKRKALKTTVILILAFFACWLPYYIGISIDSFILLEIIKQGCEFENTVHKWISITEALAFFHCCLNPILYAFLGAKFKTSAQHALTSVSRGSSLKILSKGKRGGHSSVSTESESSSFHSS

Sequence	SelectScreen Agonist Mode [1]	SelectScreen Antagonist Mode [1]	gpcrMAX Agonist Mode (% Agonist Activity) [2]	gpcrMAX Antagonist Mode (% Antagonist Activity) [2]	Interpretation [3]	gpcrMAX Agonist Mode (% Agonist Activity) [3]	gpcrMAX Antagonist Mode (% Antagonist Activity) [3]	gpcrMAX Agonist Mode (% Agonist Activity) [4]	gpcrMAX Antagonist Mode (% Antagonist Activity) [4]	SelectScreen Agonist Mode [5]
MKVRPSVKPMCEKCKIIRRKGRVMVICENPKHKQRQG [SG-3-00802]	weak agonistic activity and No	potent reverse antagonistic activity (sensitization) and PAM	−14%	99%	No	0%	0%	−4%	−32%	weak agonistic activity and No
LGKTDWIEKYFKVKKEKIDKMQRFLQG (peptide for immunotherapy; SG-3-05021)	no agonistic activity and No	reverse antagonistic activity (sensitization) and PAM	1%	10%	–	0%	−18%	−4%	−20%	no agonistic activity and No
